# Positions count from the first letter of the chain named. Entries after “also recorded” stand apart in the source; their conditions may differ. Where two headings read alike, the source gives them in different places.
# B1: Gln60Gly: altered lac repressor protein with glycine substituted for glutamine at amino acid number 60; SEQ ID NO:2 (protein, listed as Escherichia coli)
# chain: MKPVTLYDVAEYAGVSYQTVSRVVNQASHVSAKTREKVEAAMAELNYIPNRVAQQLAGKGSLLIGVATSSLALHAPSQIVAAIKSRADQLGASVVVSMVERSGVEACKAAVHNLLAQRVSGLIINYPLDDQDAIAVEAACTNVPALFLDVSDQTPINSIIFSHEDGTRLGVEHLVALGHQQIALLAGPLSSVSARLRLAGWHKYLTRNQIQPIAEREGDWSAMSGFQQTMQMLNEGIVPTAMLVANDQMALGAMRAITESGLRVGADISVVGYDDTEDSSCYIPPLTTIKQDFRLLGQTSVDRLLQLSQGQAVKGNQLLPVSLVKRKTTLAPNTQTASPRALADSLMQLARQVSRLESGQ
# B2: Gln60Gly/Leu148Phe (protein)
# chain: B1 chain with L148F
# B3: wild-type LacI: naturally occurring E. coli lac repressor protein (LacI); SEQ ID NO:1 (protein, listed as Escherichia coli)
# chain: B1 chain with G60Q
# B4: Leu148Phe (protein)
# chain: B1 chain with G60Q, L148F
# B5: Pro320Ala: lac repressor protein Pro320Ala identified by random mutagenesis and phenotypic screening (protein)
# chain: B1 chain with G60Q, P320A
# B6: Gln55Glu: Gln55Glu mutant of the lac repressor (protein)
# chain: B1 chain with Q55E, G60Q
# B7: Val52Cys: mutation of lac repressor amino acid 52 from Val to Cys (protein)
# chain: B1 chain with V52C, G60Q
# Columns and labels:
# [1] = biological target: O^1 operator sequences (lac operator DNA); assay: lac operator DNA binding of lac repressor proteins characterized in vitro; design: species or system E. coli; conditions: for affinity for lac operator DNA (in words): relative to wild-type lac repressor unless stated
# Description: The term “affinity”, as used in conjunction with the lac operator or an inducer ligand, is defined as 1/Kd, where Kd is the concentration of DNA or ligand required to occupy 50% of the available binding sites.
# (§1) To test an altered lac repressor protein, the coding sequence for the altered lac repressor protein can be cloned into an expression vector. The expression vector can then be placed into bacterial or eukaryotic cells containing a reporter gene under lac operator control to test for an active repressor protein. For example, a reporter containing E. coli β-galactosidase (encoded by lacZ) has been constructed by excising the lacZ gene under control of the lac operator from the plasmid pCR2.1 (Invitrogen) and inserting it into plasmid pACYC184 (New England Biolabs). This new composite reporter plasmid is named pZCam and can be co-transformed or electroporated into bacteria with the plasmids containing the coding sequences of altered lac repressor proteins. Host cells for these plasmids should have neither lactose repressor nor β-galactosidase proteins (i.e., the cells are lacI^− lacZ^−). Next, these bacteria are plated in the presence of either methyl umbelliferyl-β-D-galactoside (MUG) or 5-bromo-4-chloro-3-indolyl-β,D-galactoside (X-gal) as indicators to determine whether an active repressor protein is present (white colonies). In the presence of an inducer sugar, colonies containing inducer-responsive repressor protein will be fluorescent (MUG) or blue (X-gal). Alternatively, the coding sequence can be cloned into any expression vector known in the art and transformed into E. coli that are lacI^−, preferably ΔlacI, and lacpOz^+. The lacpOz region can be on a different, but compatible, plasmid or in the bacterial genome. Colonies containing active repressor protein will be white in the absence of an inducer and fluorescent (MUG) or blue (X-gal) in the presence of an inducer. Specific amino acid changes that result in increased operator binding affinity or enhanced ligand responsivity can be determined. LacI derivatives with appropriate properties are then isolated and characterized in vitro for their (a) O^1 operator DNA binding properties in the absence and presence of the appropriate inducer ligand and (b) inducer ligand binding properties in the absence and presence of operator DNA. Purified proteins can be obtained by standard protein purification methods known to those of skill in the art.
# [2] = responsivity of lac repressor proteins to inducer ligand; type: biochemical, E. coli; conditions: relative to wild-type lac repressor
# Description: as §1
# Mutants can be screened by phenotypic analysis as described above. In the preferred forms, the plasmid containing the gene for altered lac repressor protein is either co-transformed with the reporter plasmid pZCam or is transformed into E. coli that are ΔlacI and lacpOz^+. Introduction of wild-type lac repressor protein into bacteria containing pZCam or into the ΔlacI/lacpOz^+ bacteria results in white colonies in the presence of MUG or X-gal. In contrast, in the presence of IPTG or the alternative ligand, the colonies are fluorescent (MUG) or blue (X-gal). […]
# [3] = test system: O^1 operator sequences (lac operator DNA); conditions: relative to wild-type lac repressor; cited from earlier work
# [4] = reduced form; cited from earlier work
# [5] = read-out: Kd for O^1 operator sequences
Molecule,affinity for lac operator DNA (in words) [1],responsivity to inducer (in words) [2],further results
B1,increased affinity for operator sequences,close to normal responsivity to inducer,"Kd ([1]; presence of 1 mM IPTG, read-out: Kd for O^1 operator sequences in the presence of 1 mM IPTG): > 100 nM; Kd [1, 5]: 0.004 nM"
B2,increased affinity for operator sequence compared to Leu148Phe (affinity comparable to wild-type lac repressor),enhanced inducer responsivity comparable to Leu148Phe,–
B3,–,–,"Kd [1, 5]: 0.012 nM"
B4,slightly diminished DNA affinity; also recorded: diminished affinity for operator sequences,enhanced responsivity to IPTG,–
B5,increased DNA affinity,normal inducer responsivity; also recorded: wild-type inducer responsivity,operator DNA affinity relative to wild-type lac repressor ([1]; higher affinity than wild-type): 10 fold
B6,–,–,"affinity for lac operator DNA (in words), from cited work [3]: decreased affinity for lac operator DNA"
B7,–,–,"affinity for lac operator DNA (in words), from cited work [3]: increased affinity for the lac operator DNA; response to inducer (in words), from cited work [4]: normal response to inducer in reduced form"
